Experiment [1] has as its target T1, CKAP4_361–524 (Homo sapiens, UniProt Q07065).
T1 construct: amino acids 106–602, 127–360, 361–524, and 525–602 regions were generated by PCR and subcloned into the pET-15b bacterial expression vector; His-tag; made in house; host or cells: E. coli BL21(DE3)pLysS
T1 sequence (Q07065 361-524): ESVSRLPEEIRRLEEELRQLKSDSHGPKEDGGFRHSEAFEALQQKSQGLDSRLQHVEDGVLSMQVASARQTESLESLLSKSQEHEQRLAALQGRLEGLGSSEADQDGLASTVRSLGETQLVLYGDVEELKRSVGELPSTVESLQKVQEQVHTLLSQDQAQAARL
Briefly: SPR binding kinetics, CKAP4_361–524 immobilized on CM5. To be noted: CM5 amine-coupling. Here is the method: (§1) All SPR experiments were performed on a Biacore X-100 instrument (GE Healthcare) with the chip surface at 25 °C using PBS containing 0.01% Tween-20 as running buffer. CKAP4 recombinant proteins were immobilized individually either by Ni^2+/nitrilotriacetic acid (NTA) chelation on Sensor Chip NTA or by amine-coupling on Sensor Chip CM5, on the Fc2 channel. For amine-coupling, the sensor surface on both flow cells was activated for 7 min with a 1:1 mixture of 0.1 M EDC (1-ethyl-3-(3-dimethylaminopropyl) carbodiimide hydrochloride) and 0.1 M NHS (N-hydroxysuccinimide) at a flow rate of 5 μl/min. Immobilization of CKAP4 proteins (on Fc2) was performed in 10 mM sodium acetate buffer, at either pH 4.5, 5.0, or 5.5 based on preliminary pH scouting runs, for optimal binding. […] The data were analyzed using Biacore Evaluation software V2.0. […]
(§2) To assess the as-APF binding activity of the purified CKAP4 deletion mutants, each protein was separately immobilized on a CM5 sensor chip through amine coupling, and SPR responses against APF control peptide and various as-APF concentrations were observed. We used this reverse approach to assess as-APF binding kinetics because the concentration of as-APF synthetic peptide could be calculated more accurately than the purified CKAP4 deletion mutants, which vary in amino acid composition. […]

Experiment [2] concerns the target T2, CKAP4_525–602 (Homo sapiens, UniProt Q07065).
T2 construct: amino acids 106–602, 127–360, 361–524, and 525–602 regions were generated by PCR and subcloned into the pET-15b bacterial expression vector; His-tag; made in house; host or cells: E. coli BL21(DE3)pLysS
T2 sequence (Q07065 525-602): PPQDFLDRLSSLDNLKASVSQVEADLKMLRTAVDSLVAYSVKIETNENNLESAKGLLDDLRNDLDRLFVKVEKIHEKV
The experiment in a line: SPR binding kinetics, CKAP4_525–602 immobilized on CM5. The following applies: CM5 amine-coupling. Here is the method:
as §1, §2
(In general: Surface plasmon resonance follows binding to a sensor surface in real time, without labels.)

In experiment [3] the target is T3, CKAP4_127–360 (Homo sapiens, UniProt Q07065).
T3 construct: amino acids 106–602, 127–360, 361–524, and 525–602 regions were generated by PCR and subcloned into the pET-15b bacterial expression vector; His-tag; made in house; host or cells: E. coli BL21(DE3)pLysS
T3 sequence (Q07065 127-360): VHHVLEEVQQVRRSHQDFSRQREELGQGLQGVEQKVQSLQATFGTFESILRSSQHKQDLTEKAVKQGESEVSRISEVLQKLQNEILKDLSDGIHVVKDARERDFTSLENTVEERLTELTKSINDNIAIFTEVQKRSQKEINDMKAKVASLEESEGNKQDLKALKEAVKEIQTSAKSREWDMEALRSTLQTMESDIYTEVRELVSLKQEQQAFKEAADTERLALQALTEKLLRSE
Briefly: SPR binding kinetics, CKAP4_127–360 immobilized on CM5. To be noted: CM5 amine-coupling. Here is the method: as §1, §2

Experiment [4] has as its system CKAP4. Briefly: SPR binding to CKAP4 recombinant proteins (overall statements). The following applies: comparison of as-APF, APF and control peptide. Here is the method:
as §1, with “binding. Unreacted NHS groups were quenched with a 7 min injection of 1 M ethanolamine pH 8.5. The Fc1 channel was treated similarly but without CKAP4 and served as a reference. Upon stabilization of the baseline signal, multi-cycle kinetics assays were performed with injections of as-APF as analyte at various concentrations (2.5–40 μM) in running buffer at 30 μl/min for 2 min, immediately followed by a 3 min dissociation phase.” for “binding.”

Experiment [5] deals with T4, CKAP4_(127–360) (UniProt Q07065 127-360).
T4 chain: T3 sequence (Q07065 127-360)
Briefly: SPR; CKAP4 deletion mutant amine-coupled on Fc2 of a CM5 chip (352, 585, 1914 RU), Fc1 blank reference; multi-cycle kinetics with as-APF 2.5–40 μM, 30 μl/min, 2 min association, 3 min dissociation; 25 °C, PBS with 0.01% Tween-20; heterogeneous ligand, 1:1 or two-state fit.

Experiment [6] has as its target CKAP4_(525–602) (UniProt Q07065). The experiment is described as above.
Experiment [7] addresses CKAP4_(361–524) (UniProt Q07065). The experiment is described as above.
The target in experiment [8] is T4, CKAP4_(127–360). Briefly: SPR; heterogeneous ligand fit, KD1.

As for TVPAAVVVA [APF control peptide], the specific binding entry in experiment [1], in experiment [2] and in experiment [3] was “no specific binding was detected” in each case. Further, the “binding to CKAP4 (in words)” value in experiment [4] was “no binding response”.

In general, stoichiometry N refers to a count of units in the complex or per binding partner. One may read the Kd as the concentration at which binding is half-saturated. High values mean weaker binding, low ones tighter binding. In experiment [5], “as-APF (asialo APF, Galβ1−3GalNAcα-O-…) (peptide)” showed a KD1 (heterogeneous ligand fit) of 4.61 µM, a KD2 (heterogeneous ligand fit) of 0.66 nM and a stoichiometry N of 7.1. In experiment [6], this molecule came in with a Kd of 197 µM and a stoichiometry N of 1.5. In experiment [7], this molecule came in with an equilibrium dissociation constant (Kd) of 2.3 µM and a stoichiometry N of 1.

TVPAAVVVA (Galβ1−3GalNAcα-O- disaccharide on the N-terminal threonine) [as-APF (asialo APF, Galβ1−3GalNAcα-O-TVPAAVVVA)] showed a Kd in experiment [8] of 4.6 µM.

The values are drawn from article PMC5594493, “Antiproliferative factor (APF) binds specifically to sites within the cytoskeleton-associated protein 4 (CKAP4) extracellular domain” (BMC Biochemistry, 2017).
